B1: F1*; the commonest letter at each place (parent)
chain: GAGACCGCAACTGAAAAGTTGTTATCACTTGTCGTAAGACACTTTGGATGGGTTGAAGTTCTGCACGTAGAAGCAAAAGGC

Variants of: B1
Test: fraction ligated after 30 min (ligated reads / total reads); higher = more ligase activity
Settings: with F1*sub RNA substrate (template-directed ligation), 42 °C
How it was run: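 Templates from an oligo pool were PCR-amplified, transcribed with T7 and gel-purified to give the ribozyme variants. Ligated and unligated products were separated on gel, reverse transcribed using barcoded primers, and read on a MiSeq. A quality filter of ≥20 was applied to core bases. Fraction ligated was taken as ligated reads as a share of all reads per variant.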

Variant | fraction ligated
GAGACCGCAACTGAAAAGTTGTTATCACTTGTCGTAAGACACTTTGTATGGGTTGAAGTTCTGCACGTAGAAGCAAAAGGC [G47T] | 0.37
GAGACCGCAACTGAAAAGTTGTTATCACTTGTCGTAAGACACTTTGGTTGGGTTGAGGTTCTGCACGTAGAAGCAAAAGGC [A48T A57G] | 0.787
GAGACCGCAACTGAAAAGTTGTTATCACTTGTCGTAAGACACTTTGGTTGGGTTGACGTTCTGCACGTAGAAGCAAAAGGC [A48T A57C] | 0.68
GAGACCGCAACTGAAAAGTTGTTATCACTTGTCGTAAGACACTTTGGTTGGGTTGATGTTCTGCACGTAGAAGCAAAAGGC [A48T A57T] | 0.546
GAGACCGCAACTGAAAAGTTGTTATCACTTGTCGTAAGACACTTTGTATAGGTTGAAGTTCTGCACGTAGAAGCAAAAGGC [G47T G50A] | 0.0507
GAGACCGCAACTGAAAAGTTGTTATCACTTGTCGTAAGACACTTTGTATCGGTTGAAGTTCTGCACGTAGAAGCAAAAGGC [G47T G50C] | 0.048
GAGACCGCAACTGAAAAGTTGTTATCACTTGTCGTAAGACACTTTGTATTGGTTGAAGTTCTGCACGTAGAAGCAAAAGGC [G47T G50T] | 0.108
GAGACCGCAACTGAAAAGTTGTTATCACTTGTCGTAAGACACTTTGGCTGGGTTCAAGTTCTGCACGTAGAAGCAAAAGGC [A48C G55C] | 0.16
GAGACCGCAACTGAAAAGTTGTTATCACTTGTCGTAAGACACTTTGGCTGGGTTTAAGTTCTGCACGTAGAAGCAAAAGGC [A48C G55T] | 0.5
GAGACCGCAACTGAAAAGTTGTTATCACTTGTCGTAAGACACTTTGGCTGGGTTAAAGTTCTGCACGTAGAAGCAAAAGGC [A48C G55A] | 0.743
GAGACCGCAACTGAAAAGTTGTTATCACTTGTCGTAAGACACTTTGGTTGGGTTCAAGTTCTGCACGTAGAAGCAAAAGGC [A48T G55C] | 0.0233
GAGACCGCAACTGAAAAGTTGTTATCACTTGTCGTAAGACACTTTGGTTGGGTTAAAGTTCTGCACGTAGAAGCAAAAGGC [A48T G55A] | 0.515
GAGACCGCAACTGAAAAGTTGTTATCACTTGTCGTAAGACACTTTGGTTGGGTTTAAGTTCTGCACGTAGAAGCAAAAGGC [A48T G55T] | 0.17
GAGACCGCAACTGAAAAGTTGTTATCACTTGTCGTAAGACACTTTGGCGGGGTTGAAGTTCTGCACGTAGAAGCAAAAGGC [A48C T49G] | 0.763
GAGACCGCAACTGAAAAGTTGTTATCACTTGTCGTAAGACACTTTGGCAGGGTTGAAGTTCTGCACGTAGAAGCAAAAGGC [A48C T49A] | 0.555
GAGACCGCAACTGAAAAGTTGTTATCACTTGTCGTAAGACACTTTGGCCGGGTTGAAGTTCTGCACGTAGAAGCAAAAGGC [A48C T49C] | 0.335
GAGACCGCAACTGAAAAGTTGTTATCACTTGTCGTAAGACACTTTGGGTAGGTTGAAGTTCTGCACGTAGAAGCAAAAGGC [A48G G50A] | 0.118
GAGACCGCAACTGAAAAGTTGTTATCACTTGTCGTAAGACACTTTGGGTTGGTTGAAGTTCTGCACGTAGAAGCAAAAGGC [A48G G50T] | 0.235
GAGACCGCAACTGAAAAGTTGTTATCACTTGTCGTAAGACACTTTGGGTCGGTTGAAGTTCTGCACGTAGAAGCAAAAGGC [A48G G50C] | 0.0771
GAGACCGCAACTGAAAAGTTGTTATCACTTGTCGTAAGACACTTTGGGTGGGTTGCAGTTCTGCACGTAGAAGCAAAAGGC [A48G A56C] | 0.259
GAGACCGCAACTGAAAAGTTGTTATCACTTGTCGTAAGACACTTTGGGTGGGTTGTAGTTCTGCACGTAGAAGCAAAAGGC [A48G A56T] | 0.357
GAGACCGCAACTGAAAAGTTGTTATCACTTGTCGTAAGACACTTTGGGTGGGTTGGAGTTCTGCACGTAGAAGCAAAAGGC [A48G A56G] | 0.399
GAGACCGCAACTGAAAAGTTGTTATCACTTGTCGTAAGACACTTTGGGTGGGTTAAAGTTCTGCACGTAGAAGCAAAAGGC [A48G G55A] | 0.787

Variant | fraction ligated
GAGACCGCAACTGAAAAGTTGTTATCACTTGTCGTAAGACACTTTGGGTGGGTTTAAGTTCTGCACGTAGAAGCAAAAGGC [A48G G55T] | 0.686
GAGACCGCAACTGAAAAGTTGTTATCACTTGTCGTAAGACACTTTGGGTGGGTTCAAGTTCTGCACGTAGAAGCAAAAGGC [A48G G55C] | 0.108
GAGACCGCAACTGAAAAGTTGTTATCACTTGTCGTAAGACACTTTGCACGGGTTGAAGTTCTGCACGTAGAAGCAAAAGGC [G47C T49C] | 0.0543
GAGACCGCAACTGAAAAGTTGTTATCACTTGTCGTAAGACACTTTGCAGGGGTTGAAGTTCTGCACGTAGAAGCAAAAGGC [G47C T49G] | 0.0669
GAGACCGCAACTGAAAAGTTGTTATCACTTGTCGTAAGACACTTTGTGTGGGTTGAAGTTCTGCACGTAGAAGCAAAAGGC [G47T A48G] | 0.183
GAGACCGCAACTGAAAAGTTGTTATCACTTGTCGTAAGACACTTTGTCTGGGTTGAAGTTCTGCACGTAGAAGCAAAAGGC [G47T A48C] | 0.0847
GAGACCGCAACTGAAAAGTTGTTATCACTTGTCGTAAGACACTTTGTTTGGGTTGAAGTTCTGCACGTAGAAGCAAAAGGC [G47T A48T] | 0.283
GAGACCGCAACTGAAAAGTTGTTATCACTTGTCGTAAGACACTTTGTATGGGTTCAAGTTCTGCACGTAGAAGCAAAAGGC [G47T G55C] | 0.0359
GAGACCGCAACTGAAAAGTTGTTATCACTTGTCGTAAGACACTTTGTATGGGTTTAAGTTCTGCACGTAGAAGCAAAAGGC [G47T G55T] | 0.0451
GAGACCGCAACTGAAAAGTTGTTATCACTTGTCGTAAGACACTTTGTATGGGTTAAAGTTCTGCACGTAGAAGCAAAAGGC [G47T G55A] | 0.0777
GAGACCGCAACTGAAAAGTTGTTATCACTTGTCGTAAGACACTTTGGGAGGGTTGAAGTTCTGCACGTAGAAGCAAAAGGC [A48G T49A] | 0.678
GAGACCGCAACTGAAAAGTTGTTATCACTTGTCGTAAGACACTTTGGGCGGGTTGAAGTTCTGCACGTAGAAGCAAAAGGC [A48G T49C] | 0.504
GAGACCGCAACTGAAAAGTTGTTATCACTTGTCGTAAGACACTTTGGGGGGGTTGAAGTTCTGCACGTAGAAGCAAAAGGC [A48G T49G] | 0.752
GAGACCGCAACTGAAAAGTTGTTATCACTTGTCGTAAGACACTTTGGTTGGGTTGTAGTTCTGCACGTAGAAGCAAAAGGC [A48T A56T] | 0.0621
GAGACCGCAACTGAAAAGTTGTTATCACTTGTCGTAAGACACTTTGGTTGGGTTGCAGTTCTGCACGTAGAAGCAAAAGGC [A48T A56C] | 0.0454
GAGACCGCAACTGAAAAGTTGTTATCACTTGTCGTAAGACACTTTGGTTGGGTTGGAGTTCTGCACGTAGAAGCAAAAGGC [A48T A56G] | 0.0654
GAGACCGCAACTGAAAAGTTGTTATCACTTGTCGTAAGACACTTTGTACGGGTTGAAGTTCTGCACGTAGAAGCAAAAGGC [G47T T49C] | 0.0788
GAGACCGCAACTGAAAAGTTGTTATCACTTGTCGTAAGACACTTTGTAAGGGTTGAAGTTCTGCACGTAGAAGCAAAAGGC [G47T T49A] | 0.0948
GAGACCGCAACTGAAAAGTTGTTATCACTTGTCGTAAGACACTTTGTAGGGGTTGAAGTTCTGCACGTAGAAGCAAAAGGC [G47T T49G] | 0.261
GAGACCGCAACTGAAAAGTTGTTATCACTTGTCGTAAGACACTTTGGGTGGGTTGAAGTTCTGCACGTAGAAGCAAAAGGC [A48G] | 0.794
GAGACCGCAACTGAAAAGTTGTTATCACTTGTCGTAAGACACTTTGGTTGGGTTGAAGTTCTGCACGTAGAAGCAAAAGGC [A48T] | 0.768
GAGACCGCAACTGAAAAGTTGTTATCACTTGTCGTAAGACACTTTGGCTGGGTTGAAGTTCTGCACGTAGAAGCAAAAGGC [A48C] | 0.752
GAGACCGCAACTGAAAAGTTGTTATCACTTGTCGTAAGACACTTTGGTTCGGTTGAAGTTCTGCACGTAGAAGCAAAAGGC [A48T G50C] | 0.0873

Variant | fraction ligated
GAGACCGCAACTGAAAAGTTGTTATCACTTGTCGTAAGACACTTTGGTTAGGTTGAAGTTCTGCACGTAGAAGCAAAAGGC [A48T G50A] | 0.158
GAGACCGCAACTGAAAAGTTGTTATCACTTGTCGTAAGACACTTTGGTTTGGTTGAAGTTCTGCACGTAGAAGCAAAAGGC [A48T G50T] | 0.392
GAGACCGCAACTGAAAAGTTGTTATCACTTGTCGTAAGACACTTTGGCTCGGTTGAAGTTCTGCACGTAGAAGCAAAAGGC [A48C G50C] | 0.17
GAGACCGCAACTGAAAAGTTGTTATCACTTGTCGTAAGACACTTTGGCTAGGTTGAAGTTCTGCACGTAGAAGCAAAAGGC [A48C G50A] | 0.148
GAGACCGCAACTGAAAAGTTGTTATCACTTGTCGTAAGACACTTTGGCTTGGTTGAAGTTCTGCACGTAGAAGCAAAAGGC [A48C G50T] | 0.309
GAGACCGCAACTGAAAAGTTGTTATCACTTGTCGTAAGACACTTTGTATGGGTTGCAGTTCTGCACGTAGAAGCAAAAGGC [G47T A56C] | 0.0301
GAGACCGCAACTGAAAAGTTGTTATCACTTGTCGTAAGACACTTTGTATGGGTTGGAGTTCTGCACGTAGAAGCAAAAGGC [G47T A56G] | 0.0352
GAGACCGCAACTGAAAAGTTGTTATCACTTGTCGTAAGACACTTTGTATGGGTTGTAGTTCTGCACGTAGAAGCAAAAGGC [G47T A56T] | 0.0333
GAGACCGCAACTGAAAAGTTGTTATCACTTGTCGTAAGACACTTTGGTCGGGTTGAAGTTCTGCACGTAGAAGCAAAAGGC [A48T T49C] | 0.139
GAGACCGCAACTGAAAAGTTGTTATCACTTGTCGTAAGACACTTTGGTAGGGTTGAAGTTCTGCACGTAGAAGCAAAAGGC [A48T T49A] | 0.565
GAGACCGCAACTGAAAAGTTGTTATCACTTGTCGTAAGACACTTTGGCTGGGTTGGAGTTCTGCACGTAGAAGCAAAAGGC [A48C A56G] | 0.283
GAGACCGCAACTGAAAAGTTGTTATCACTTGTCGTAAGACACTTTGGCTGGGTTGCAGTTCTGCACGTAGAAGCAAAAGGC [A48C A56C] | 0.185
GAGACCGCAACTGAAAAGTTGTTATCACTTGTCGTAAGACACTTTGGCTGGGTTGTAGTTCTGCACGTAGAAGCAAAAGGC [A48C A56T] | 0.289
GAGACCGCAACTGAAAAGTTGTTATCACTTGTCGTAAGACACTTTGTATGGGTTGACGTTCTGCACGTAGAAGCAAAAGGC [G47T A57C] | 0.0653
GAGACCGCAACTGAAAAGTTGTTATCACTTGTCGTAAGACACTTTGTATGGGTTGAGGTTCTGCACGTAGAAGCAAAAGGC [G47T A57G] | 0.101
GAGACCGCAACTGAAAAGTTGTTATCACTTGTCGTAAGACACTTTGTATGGGTTGATGTTCTGCACGTAGAAGCAAAAGGC [G47T A57T] | 0.0782
GAGACCGCAACTGAAAAGTTGTTATCACTTGTCGTAAGACACTTTGGGTGGGTTGAGGTTCTGCACGTAGAAGCAAAAGGC [A48G A57G] | 0.803
GAGACCGCAACTGAAAAGTTGTTATCACTTGTCGTAAGACACTTTGGGTGGGTTGATGTTCTGCACGTAGAAGCAAAAGGC [A48G A57T] | 0.795
GAGACCGCAACTGAAAAGTTGTTATCACTTGTCGTAAGACACTTTGGGTGGGTTGACGTTCTGCACGTAGAAGCAAAAGGC [A48G A57C] | 0.792
GAGACCGCAACTGAAAAGTTGTTATCACTTGTCGTAAGACACTTTGGCTGGGTTGAGGTTCTGCACGTAGAAGCAAAAGGC [A48C A57G] | 0.762
GAGACCGCAACTGAAAAGTTGTTATCACTTGTCGTAAGACACTTTGGCTGGGTTGACGTTCTGCACGTAGAAGCAAAAGGC [A48C A57C] | 0.714
GAGACCGCAACTGAAAAGTTGTTATCACTTGTCGTAAGACACTTTGGCTGGGTTGATGTTCTGCACGTAGAAGCAAAAGGC [A48C A57T] | 0.719
